Experimental data as given in the DeepSol protein solubility set.

Assay: soluble on expression in E. coli; label from the status in PepcDB or PDB records

| Sequence | soluble on expression in E. coli |
| --- | --- |
| MGSDKIHHHHHHMPYKTLKTIDYEAHHDSKTVGTEYERRIHNYGIFKSGLYPFLIDHQELSQDRRELFITPLREIAIACERIEYNSAELKSKLKELPPIAEELYLKKSLINEITTSNRLSGIAVRRTEVKAALDSINKDNQEQVRFAPMAKMYNKILEDDFQRIESFVDLRKVYNQLLFGLIEKEQMPDGAFFRNRPVSIKNDQQKIIFQLPGNENDLEQRLSNWLKFISNKNIPFMIKGLLAHGYFENIHPFYDGNGRTSRYILSLYLARKLDLVTGLNVAQAIYENRESYEKALLALGDQGNFAEGSFFINDSLSMIENRQRKIIEDLDVNIKQLSRTNKKIQQIYQINSPEYFVLNLLLQSKIFTDNQADGLLDREIVEISENSKHSKRAINLAIKSLEQKKQITTLKKNPFQHSIDIN | not soluble |
| MGSDKIHHHHHHAADRPTQPVRTEVYRLERLDSVLLVDLAVDLTGVHLAPDCTVYLFPLLASENTGDSLSLPPIVLNGPQSDLMYRRRRALGTTSGLEKITPYTVLREGDHALPRIHYRTEVPYAAWMDDVKVWMRDTNCNCDARLVPFAMHTEHIPPLVVERVDTIVIHDTIRLASVASGQSTVASDIPLRKKVTRIQAGYEADIYFPTNEMRILPDHELNRASWMHFVNQVDSIEQDNRNSISGVTVTGYSSPEGYTSNNERLAEKRAKALQAFLENKYGERMEVAVEWVGEDWKQFEKDIEVSDLPERNEILSILRTVSDSNQRKSRLKALNKGKTFGILLREYFPKLRRVSCRIRYVK | not soluble |
| SLITVRIGGNEYPLDEVLEDPGRYARHLERAKTIQGFAECGCAEGRPRPKLVIRRHRDIFLLARWPEQAFRHAEGCPFHRKTQTTPGAADSLDAFRMRDGRHDIRLDASLSVSTHTPAKTVQRTPKGQFTKPQRRSAGLLALLEFAWEQAGLNVWPGTGARSWNGCWSQLTAELDDCRINGKDADGLLHVMQRWDPARKSEILAEFEAWQARLSPTAAGNPRGILIGEIESHAATQYGGKVVLRQSTQRFFMSSGLYERLQASFGTALAGIGRAEQRCVAVLLVEKSRSNYLTVVDIGAMLANRQFLPCDSSHEVAMADHLVALRRAFRKPLRHIGRAEVHPDFVLTDVQPETVIEVLGMAGNPAYDARTASKRQHYQTAGVPFLEWDAVATSISSVRVPPAGTRAADAR | soluble |
| MGSDKIHHHHHHMNDLLKVIHNRASIRKFTGEHIPESDMEQIMSAAQSVPSINNYQPVTYVEITDQSVKDQAADLVNMPYVASSDRFFVILADYHKLLVGFEGKEREIAQTNLSAYNIAEGAALSAGVSAYAAIIAAESLGYGGVTMAGPVRAFQIYENYLDLPEMTKVVFTLALGVPDGHPGVKPKLPLSTFWQKDSYDTNVIDQGIADYNKTMRSYYESRNIDENWTEHNKKALTKAKDTTALTEYAKRKGFNLK | not soluble |
| MGSDKIHHHHHHMRASSHLPQLHGRLDLTFERRRGTTRLVASEQTPPLNVSRVLRTEEVDLATVYLVETSGGVVSGDSQTIAIYVGEGARVELIPQSATKVYPSRKQGESSTQQVWLRVDEGAAAFWKPESIIPFRKASFLQSTRFHLHSSSTFFYGDMLTPGRVHHNERFQYEQVDSLVEIYLDETLVVHDRVHLQPKDQLQTIGRLDGYSYYGAVWMHAPILKGAHLEQWMENGGQNDRFAYTCVAEGLIHVRWLSESSWRLRAALNDLYTAFRTFALKGE | not soluble |
| MSRLLSGGVGVIFAVLFSVNVGNARDQIQITGSSTVLPYQKIVAEIFGEIYPHFKIPVIESGGTGGGIKEFCRGIGENAIDIVNASRAMKLSELQSCFDAGVKDVEEIRIGYDGIVFATDINGPDWKLQPVDIYRALAARIMKDGKLQSNNVSKWSAVNSALPGWTIAAYIPGEKH | not soluble |
| MGSDKIHHHHHHMRNPPFIVEYELTLRCNFRCKHCYCEAGKPHLEELSFEEIKELILDMKELGTWALDIVGGEPLLHPQILDILAFGKEVGQRLMINTNGSLATKEMVQKIKKANPDVLIGVSLEGPDPETNDFVRGTGNFKRAVQGIKNFVDEGFQVTILNVINKRNWRKFEDMVKLALELGVNALYVDRFIPVGRGMIHARELDMNPEEWRVAIKHVLGVIENYKNHLTFYVEESISGKPCSAGITHASVLADGTVVPCGHFRYRKEFYMGNVREKKFSEIWHEYTPIPSPASCQQCPILNECGGGCKAYYLLREHEKDEAICFLNKERYNIK | not soluble |
| MSLKLNWDKAIDKAIKRYGLRVEPQLISYFSKAGVSYPPKEIALLAFKSERKVELWAKNPSQEWTHIHDYPLTGFSGRLGPKLRENDKQIPEGIYKLVNFNPFSSMHLSMMINYPNSFDRQKGYMDGRKELGNNIFIHGKNLSVGCLAVGDLAIDQLFILARRVGLKNIQVIIAPNDLRYQKPSTSTFAQPRWLPELYKQITESLKPFKKTKFTAEGHHHHHH | soluble |
| MYAAYQTNGPARPIARTAAFTKEDDLLVDMARQNNLRGRILTYCVAGTFGLLSPNYLHASAATANWDINQIEISGLSESSVGAISESARDIAHIRAVTKISVSELSRVFGVSRQAVHEWIKGGTLSQRNAQRLSELARATDVFIEAEIEASPQVFRRKIAGGQSILDAVRENGNAVELAKTLAATLVRESQQRQRLAARLAGRSATPGTSTEFGSPHLDEDA | not soluble |
| SSRAKRIMKEIQAVKDDPAAHITLEFVSESDIHHLKGTFLGPPGTPYEGGKFVVDIEVPMEYPFKPPKMQFDTKVYHPNISSVTGAICLDILRNAWSPVITLKSALISLQALLQSPEPNDPQDAEVAQHYLRDRESFNKTAALWTRLYASETSNGQKGNVEESDLYGIDHDLIDEFESQGFEKDKIVEVLRRLGVKSLDPNDNNTANRIIEELLK | soluble |
| MAKIILRHLIEIPVRYQEEFEARGLEDCRLDHALYALPGPTIVDLRKTRAAQSPPVDSAAETPPREGKSHFQILLDVVQFLPEDIIIQTFEGWLLIKAQHGTRMDEHGFISRSFTRQYKLPDGVEIKDLSAVLCHDGILVVEVKDPVGTK | soluble |
| MAASMTKPISITSLGFYSDRKNIAFSDCISICSGFRHSRPSCLDLVTKSPSNNSRVLPVVSAQISSDYIPDSKFYKVEAIVRPWRIQQVSSALLKIGIRGVTVSDVRGFGAQGGSTERHGGSEFSEDKFVAKVKMEIVVKKDQVESVINTIIEGARTGEIGDGKIFVLPVSDVIRVRTGERGEKAEKMTGDMLSPS | not soluble |
| MGSDKIHHHHHHMSSKRLVIVGGGITGLAAAYYAERAFPDLNITLLEAGERLGGKVATYREDGFTIERGPDSYVARKHILTDLIEAIGLGEKLVRNNTSQAFILDTGGLHPIPKGAVMGIPTDLDLFRQTTLLTEEEKQEVADLLLHPSDSLRIPEQDIPLGEYLRPRLGDALVEKLIEPLLSGIYAGNIDQMSTFATYPQFVANEQKAGSLFEGMRLMRPLDQLPQTPQTTIKATGQFLSLETGLESLIERLEEVLERSEIRLETPLLAISREDGRYRLKTDHGPEYADYVLLTIPHPQVVQLLPDAHLPELEQLTTHSTATVTMIFDQQQSLPIEGTGFVVNRRAPYSITACTAIDQKWNHSAPDHTVLRAFVGRPGNDHLVHESDEVLQQAVLQDLEKICGRTLEPKQVIISRLMDGLPAYTVGHADRIQRVREEVLAQYPGIYLAGLAYDGVGLPDCVASAKTMIESIELEQSHTDESVNET | not soluble |
| MIGLLFLFAACQEKVTSPAKVDTLPSIFPDYVGVTIPSTIAPLNFRVTDDGVEAVDVVIAGTKGKPVRLNGRSVDIPAKQWHELLESNKGDSIEVKVSVRQGKKWKEYRPFPIYVSPFPIDYGLVYRLLAPGYEVYSKMGIYERELSTFRQTPLFENTQVTAACINCHAFNRTEPTPSSVHVRGGHGATVIDTGDRLEFLDTKADGQLSACVYPYWHPSGEYIAYSVNKTNQAFHLGGKKPIEVFDQASDVVVYHPRSHRILTTPLLSTASFETFPAFSPDGRTLYFCSAEQKEMPVRYKDVKYSLCSIAFHPEDGTFGDRIDTLISARTLDKSISFPKPSFDGKYLMFTLSDYGNFSIWHKEADLWLLDLKTGTYRNLEEVNSDDTESYHNWSSNSHWFVFSSRRGDGLYTRLYISSVDGQGRIGKPFLLPQQDPYTFYDQLIYSYNVPEFVSAPVQWDKREMAKGLMSKERVKVKLEHHHHHH | not soluble |
